Reference: paper PMC5484534 (Molecular cell, 2017)

B1: PPIL3: human nuclear cyclophilin (protein, UniProt Q9H2H8 2-161, looked up)
Peptidyl-prolyl cis-trans …: SVTLHTDVGDIKIEVFCERTPKTCENFLALCASNYYNGCIFHRNIKGFMVQTGDPTGTGRGGNSIWGKKFEDEYSEYLKHNVRGVVSMANNGPNTNGSQFFITYGKQPHLDMKYTVFGKVIDGLETLDELEKLPVNEKTYRPLNDVHIKDITIHANPFAQ
modifications: His6-GST tag
B2: PPIL1: human nuclear cyclophilin (protein, UniProt Q9Y3C6 1-166, looked up)
Peptidyl-prolyl cis-trans …: MAAIPPDSWQPPNVYLETSMGIIVLELYWKHAPKTCKNFAELARRGYYNGTKFHRIIKDFMIQGGDPTGTGRGGASIYGKQFEDELHPDLKFTGAGILAMANAGPDTNGSQFFVTLAPTQWLDGKHTIFGRVCQGIGMVNRVGMVETNSQDRPVDDVKIIKAYPSG
B3: PPWD: human nuclear cyclophilin (protein, UniProt Q96BP3 2-646, looked up)
Peptidylprolyl isomerase …: AAESGSDFQQRRRRRRDPEEPEKTELSERELAVAVAVSQENDEENEERWVGPLPVEATLAKKRKVLEFERVYLDNLPSASMYERSYMHRDVITHVVCTKTDFIITASHDGHVKFWKKIEEGIEFVKHFRSHLGVIESIAVSSEGALFCSVGDDKAMKVFDVVNFDMINMLKLGYFPGQCEWIYCPGDAISSVAASEKSTGKIFIYDGRGDNQPLHIFDKLHTSPLTQIRLNPVYKAVVSSDKSGMIEYWTGPPHEYKFPKNVNWEYKTDTDLYEFAKCKAYPTSVCFSPDGKKIATIGSDRKVRIFRFVTGKLMRVFDESLSMFTELQQMRQQLPDMEFGRRMAVERELEKVDAVRLINIVFDETGHFVLYGTMLGIKVINVETNRCVRILGKQENIRVMQLALFQGIAKKHRAATTIEMKASENPVLQNIQADPTIVCTSFKKNRFYMFTKREPEDTKSADSDRDVFNEKPSKEEVMAATQAEGPKRVSDSAIIHTSMGDIHTKLFPVECPKTVENFCVHSRNGYYNGHTFHRIIKGFMIQTGDPTGTGMGGESIWGGEFEDEFHSTLRHDRPYTLSMANAGSNTNGSQFFITVVPTPWLDNKHTVFGRVTKGMEVVQRISNVKVNPKTDKPYEDVSIINITVK
B4: PPIG: human nuclear cyclophilin (protein, UniProt Q13427 1-754, looked up)
Peptidyl-prolyl cis-trans …: MGIKVQRPRCFFDIAINNQPAGRVVFELFSDVCPKTCENFRCLCTGEKGTGKSTQKPLHYKSCLFHRVVKDFMVQGGDFSEGNGRGGESIYGGFFEDESFAVKHNKEFLLSMANRGKDTNGSQFFITTKPTPHLDGHHVVFGQVISGQEVVREIENQKTDAASKPFAEVRILSCGELIPKSKVKKEEKKRHKSSSSSSSSSSDSDSSSDSQSSSDSSDSESATEEKSKKRKKKHRKNSRKHKKEKKKRKKSKKSASSESEAENLEAQPQSTVRPEEIPPIPENRFLMRKSPPKADEKERKNRERERERECNPPNSQPASYQRRLLVTRSGRKIKGRGPRRYRTPSRSRSRDRFRRSETPPHWRQEMQRAQRMRVSSGERWIKGDKSELNEIKENQRSPVRVKERKITDHRNVSESPNRKNEKEKKVKDHKSNSKERDIRRNSEKDDKYKNKVKKRAKSKSRSKSKEKSKSKERDSKHNRNEEKRMRSRSKGRDHENVKEKEKQSDSKGKDQERSRSKEKSKQLESKSNEHDHSKSKEKDRRAQSRSRECDITKGKHSYNSRTRERSRSRDRSRRVRSRTHDRDRSRSKEYHRYREQEYRRRGRSRSRERRTPPGRSRSKDRRRRRRDSRSSEREESQSRNKDKYRNQESKSSHRKENSESEKRMYSKSRDHNSSNNSREKKADRDQSPFSKIKQSSQDNELKSSMLKNKEDEKIRSSVEKENQKSKGQENDHVHEKNKKFDHESSPGTDEDKSG
B5: PPIL2: human nuclear cyclophilin (protein, UniProt Q13356 1-520, looked up)
RING-type E3 …: MGKRQHQKDKMYITCAEYTHFYGGKKPDLPQTNFRRLPFDHCSLSLQPFVYPVCTPDGIVFDLLNIVPWLKKYGTNPSNGEKLDGRSLIKLNFSKNSEGKYHCPVLFTVFTNNTHIVAVRTTGNVYAYEAVEQLNIKAKNFRDLLTDEPFSRQDIITLQDPTNLDKFNVSNFYHVKNNMKIIDPDEEKAKQDPSYYLKNTNAETRETLQELYKEFKGDEILAATMKAPEKKKVDKLNAAHYSTGKVSASFTSTAMVPETTHEAAAIDEDVLRYQFVKKKGYVRLHTNKGDLNLELHCDLTPKTCENFIRLCKKHYYDGTIFHRSIRNFVIQGGDPTGTGTGGESYWGKPFKDEFRPNLSHTGRGILSMANSGPNSNRSQFFITFRSCAYLDKKHTIFGRVVGGFDVLTAMENVESDPKTDRPKEEIRIDATTVFVDPYEEADAQIAQERKTQLKVAPETKVKSSQPQAGSQGPQTFRQGVGKYINPAATKRAAEEEPSTSATVPMSKKKPSRGFGDFSSW
B6: CWC27: human nuclear cyclophilin (protein, UniProt Q6UX04 2-472, looked up)
Spliceosome-associated …: SNIYIQEPPTNGKVLLKTTAGDIDIELWSKEAPKACRNFIQLCLEAYYDNTIFHRVVPGFIVQGGDPTGTGSGGESIYGAPFKDEFHSRLRFNRRGLVAMANAGSHDNGSQFFFTLGRADELNNKHTIFGKVTGDTVYNMLRLSEVDIDDDERPHNPHKIKSCEVLFNPFDDIIPREIKRLKKEKPEEEVKKLKPKGTKNFSLLSFGEEAEEEEEEVNRVSQSMKGKSKSSHDLLKDDPHLSSVPVVESEKGDAPDLVDDGEDESAEHDEYIDGDEKNLMRERIAKKLKKDTSANVKSAGEGEVEKKSVSRSEELRKEARQLKRELLAAKQKKVENAAKQAEKRSEEEEAPPDGAVAEYRREKQKYEALRKQQSKKGTSREDQTLALLNQFKSKLTQAIAETPENDIPETEVEDDEGWMSHVLQFEDKSRKVKDASMQDSDTFEIYDPRNPVNKRRREESKKLMREKKERR

How the values were obtained:
BMAL1 TAD = experiment: Cyclophilin acceleration of TAD switch isomerization by 15N-1H ZZ-exchange NMR; format: biochemical, mouse; settings: room temperature (22.68°C), 400 μM 15N BMAL1 TAD + 100 μM cyclophilin, 20 mM HEPES pH 7.0 (pH 7.5 for His6GST-PPIL3), 100 mM NaCl, 2 mM TCEP
[1] = ref Davis et al., 2010; cited from earlier work

Molecule	activity on TAD switch isomerization, in words (BMAL1 TAD)	activity on generic peptide substrates [1]
B1	significantly increased the rate of isomerization in BMAL1	
B2	significantly increased the rate of isomerization in BMAL1	
B3	either not active on the TAD or had activity that was below the detection limit	
B4	significantly increased the rate of isomerization in BMAL1	
B5	either not active on the TAD or had activity that was below the detection limit	lack activity on generic peptide substrates
B6	either not active on the TAD or had activity that was below the detection limit	lack activity on generic peptide substrates
